One may read the EC50 (read off the curve) as the midpoint of the concentration-response curve. Low values mean a more potent agent, high ones a less potent agent.

The text below walks through data of US20260184793A1 (TJ BIOPHARMA SHANGHAI, published 2026).

For assay [1], the target named is T1, human PD-L1 expressed on cells (Raji cells overexpressing human PD-L1; CHO cells) (human, UniProt Q9NZQ7 19-290). Put plainly: cell-based or functional assay.
Assay [2] concerns the target T1, human PD-L1 expressed on cells (Raji …). Put plainly: flow cytometry, PD-L1 expressed on CHO or Raji cells. Background: Flow cytometry measures light scatter and fluorescence of single cells or particles in a stream.
Assay [3] addresses T2, human His-PD-L1 (human, UniProt Q9NZQ7 19-238, limits assumed).
T2 construct: also called human PD-L1
Put plainly: ELISA: plate coated with human His-PD-L1, antibody titrated, goat anti-human IgG Fc HRP, OD450. The method, then: Briefly, 100 μl anti-PD-L1 antibody at different concentrations was incubated in each well of 96 well plate pre-coated with human His-PD-L1, and then goat anti-human IgG Fc HRP was added and analyzed by coloring reaction of HRP with its substrate.
For orientation: ELISA stands for enzyme-linked immunosorbent assay.

For assay [4], the target named is T1, human PD-L1 expressed on cells (Raji …). Put plainly: cell-based or functional assay. The source holds these as a separate data set.
Assay [5] has the same target. Put plainly: flow cytometry on CHOK1-PDL1 cells (cell binding assay), GMFI.
For assay [6], the target named is T2, human His-PD-L1. Put plainly: ELISA blocking assay: antibody titrated together with Biotin-PD-1 on coated human His-PD-L1, Streptavidin-HRP, OD450.
Assay [7] deals with T2, human His-PD-L1. The assay is described as above. This is another data set of the same source.
Assay [8] concerns the target T1, human PD-L1 expressed on cells (Raji …). Put plainly: flow cytometry on CHOK1-PDL1 cells (cell binding assay), GMFI. This is another data set of the same source.
Assay [9] concerns the target T2, human His-PD-L1. Put plainly: ELISA blocking assay: antibody titrated together with Biotin-PD-1 on coated human His-PD-L1, Streptavidin-HRP, OD450. This is another data set of the same source.
Assay [10] deals with T1, human PD-L1 expressed on cells (Raji …). Put plainly: flow cytometry on Raji-PDL1 cells (cell binding assay), GMFI. How it is done: Binding capability of the anti-PD-L1 antibody of the present application was further evaluated by using Raji cells overexpressing human PD-L1. Briefly, 50 μl Raji cells overexpressing human PD-L1 were seeded into 96 well plate at a concentration of 2*10⁵ cells/well. […] Then the cells were washed twice by FACS buffer and supplemented with 100 μl PE-anti-hu IgG, followed by incubation on ice for 1 hour. After incubation, the cells in each well were collected and resuspended with 65 μl FACS buffer for analysis by flow cytometry.

The target in assay [11] is T2, human His-PD-L1. Put plainly: ELISA blocking assay: antibody titrated together with Biotin-PD-1 on coated human His-PD-L1, Streptavidin-HRP, OD450. This is another data set of the same source.

Where a chain is given by its changes, count along the chain named. Read-outs that look alike come from different tables or passages of the source.

T2 sequence (Q9NZQ7 19-238 limits assumed): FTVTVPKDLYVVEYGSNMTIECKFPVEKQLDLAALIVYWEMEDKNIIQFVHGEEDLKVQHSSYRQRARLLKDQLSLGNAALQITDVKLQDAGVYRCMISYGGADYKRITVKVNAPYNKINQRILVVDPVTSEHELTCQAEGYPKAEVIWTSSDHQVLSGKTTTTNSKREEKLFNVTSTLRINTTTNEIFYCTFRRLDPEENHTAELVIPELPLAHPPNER
T1 sequence (Q9NZQ7 19-290): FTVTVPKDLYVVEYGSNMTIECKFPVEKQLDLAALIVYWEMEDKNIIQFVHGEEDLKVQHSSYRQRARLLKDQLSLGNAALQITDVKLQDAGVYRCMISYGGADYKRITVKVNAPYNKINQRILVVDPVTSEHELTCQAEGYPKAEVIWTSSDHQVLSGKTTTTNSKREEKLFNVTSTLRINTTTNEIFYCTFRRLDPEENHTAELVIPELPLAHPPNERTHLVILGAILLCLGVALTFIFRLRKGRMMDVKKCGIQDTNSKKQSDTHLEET

B1: 112-VH47 (VHH)
VHH: EVQLVESGGGLVQPGGSLRLSCAASGFTFSSGTQFSDSKIDWYRQAPGKGLVWVAGIFSTGSTIYEDSVKGRFTISRDNAKNTGYLQMNSLRAEDTAVYYCRVIGRGILAWGQGTLVTVSS
With B1, the “EC50 (read off the curve), NFAT-luciferase signal (RLU), CHO-PDL-1 aAPC and Jurkat-PD-1-NFAT” value (shortened to “EC50 … CHO-PDL-1 aAPC and Jurkat-PD-1-NFAT”) in [1] is about 0.6 nM.

B2: R21560103 (VHH)
VHH: B1 VHH with R106I
notes: ELISA detection with anti-human IgG Fc implies a human Fc part that is not described
Consider B2, for which the binding result (in assay [2]; with human His-PD-L1 [3]) was “binds” in each case.

B3: R21560106 (VHH)
VHH: B1 VHH with I40A, I108T
notes: as for B2
On to B3, for which the binding result (in assay [2]; with human His-PD-L1 [3]) was “binds” each time.

B4: R21560102 (VHH)
VHH: B1 VHH with S59Q
notes: as for B2
On to B4, for which the “EC50 … CHO-PDL-1 aAPC and Jurkat-PD-1-NFAT” value in assay [4] was about 0.5 nM. Besides, the concentration giving a half-maximal response (EC50 (read off the curve)) in assay [5] was about 3 nM. Further, the “IC50 (read off the curve)” value in the assay with human His-PD-L1 [6] is about 0.8 nM.

B5: 93-VH-6 (VHH)
VHH: EVQLVESGGGLVQPGGSLRLSCAASGFTFTFRHYVMGWFRQAPGKEREFVAAISWSGSGSYYADSVKGRFTISRDNSKNTVYLQMNSLRAEDTAVYYCAADMTTRMSQASREYDYWGQGTLVTVSS
As for B5, the “EC50 … CHO-PDL-1 aAPC and Jurkat-PD-1-NFAT” value in assay [1] was about 0.7 nM.

B6: R21448519 (VHH)
VHH: B5 VHH with A109D, R111D
notes: as for B2
With B6, the “IC50 (read off the curve)” value with human His-PD-L1 [7] was about 0.8 nM.

B7: R21448517 (VHH)
VHH: B5 VHH with R105E, A109D
notes: as for B2
In the case of B7, the binding result (in assay [2]; with human His-PD-L1 [3]) was “binds” throughout.

B8: R21448515 (VHH)
VHH: B5 VHH with R32Y, A52D, R111D
notes: as for B2
Take B8: the “IC50 (read off the curve)” value with human His-PD-L1 [7] was about 0.8 nM.

B9: R21448513 (VHH)
VHH: B5 VHH with R32Y, A52D, R105E
notes: as for B2
Regarding B9, the binding result (in assay [2]; in the assay with human His-PD-L1 [3]) was “binds” each time.

B10: R21448509 (VHH)
VHH: B5 VHH with R32Y, R111D
notes: as for B2
As to B10, the binding result (in assay [8]; with human His-PD-L1 [9]) was “binds” in each case.

B11: R21448506 (VHH)
VHH: B5 VHH with R111D
notes: as for B2
On to B11, for which the binding result (in assay [8]; with human His-PD-L1 [3]) was “binds” each time.

B12: R21448508 (VHH)
VHH: B5 VHH with R32Y, A109D
notes: as for B2
For B12, the binding result (in assay [2]; in the assay with human His-PD-L1 [3]) was “binds” in each case.

B13: R21448516 (VHH)
VHH: B5 VHH with R32Y, A52D, R105E, A109D, R111D
notes: as for B2
As for B13, the “EC50 (read off the curve)” value in [10] was about 0.4 nM. Also, the “IC50 (read off the curve)” value with human His-PD-L1 [11] was about 0.7 nM.

B14: R21448504 (VHH)
VHH: B5 VHH with R105E
notes: as for B2
Consider B14, for which the binding result (in assay [2]; in the assay with human His-PD-L1 [3]) was “binds” in each case.

B15: R21448505 (VHH)
VHH: B5 VHH with A109D
notes: as for B2
On to B15, for which the 50% effective concentration (EC50 (read off the curve)) in assay [8] was about 4 nM.

B16: R21448518 (VHH)
VHH: B5 VHH with R105E, R111D
notes: as for B2
With B16, the binding result (in [2]; with human His-PD-L1 [3]) was “binds” each time.

B17: R21448514 (VHH)
VHH: B5 VHH with R32Y, A52D, A109D
notes: as for B2
On to B17, for which the “IC50 (read off the curve)” value in the assay with human His-PD-L1 [7] was about 0.6 nM.

B18: R21448507 (VHH)
VHH: B5 VHH with R32Y, R105E
notes: as for B2
Take B18: the binding result (in [2]; with human His-PD-L1 [3]) was “binds” in each case.

B19: R21448502 (VHH)
VHH: B5 VHH with R32Y
notes: as for B2
As to B19, the binding result (in [2]; with human His-PD-L1 [3]) was “binds” in each case.
